From paper PMC5823908, “Human mitochondrial pyruvate carrier 2 as an autonomous membrane transporter” (Scientific Reports, 2018)

Target: the molecule itself
Assay: cross-linking; purified MPC2-detergent (DDM) complex, about 10 μg protein, DSS 0.2-4 mM, 30 min, room temperature, 20 mM HEPES pH 8.0, 300 mM NaCl, 5% glycerol, 0.05 mM TCEP, 0.03% DDM

B1: purified human MPC2 after removal of GFP-10xHis (natural protein, UniProt O95563 1-127, looked up)
chain: MSAAGARGLRATYHRLLDKVELMLPEKLRPLYNHPAGPRTVFFWAPIMKWGLVCAGLADMARPAEKLSTAQSAVLMATGFIWSRYSLVIIPKNWSLFAVNFFVGAAGASQLFRIWRYNQELKAKAHK
notes: human mitochondrial pyruvate carrier 2 (MPC2), codon-optimized synthetic gene, NCBI NP_001137146.1; Residues of the PreScission site probably stay at the C-terminus after cleavage; also called purified MPC2; MPC2-detergent (DDM) complex; source: S. cerevisiae lacking endogenous MPC (3Δ); extracted with 1% C12E8, purified by Co-IMAC, PreScission Protease removal of GFP-10xHis, gel filtration in …
With B1 the “stoichiometry N” value was 2.
